In publication PMC8086355, “The unusual structure of the PiggyMac cysteine-rich domain reveals zinc finger diversity in PiggyBac-related transposases”:

Columns and labels:
[1] = biological target: H3(1–19)K4me3-b (Paramecium tetraurelia); assay: ELISA; C-terminally biotinylated peptides (4 μM) on streptavidin-coated plates; purified MBP or MBP-CRD fusions (10 to ~100 nM) in buffer C (25 mM Tris pH 7.4, 150 mM NaCl, 0.1% BSA, 0.05% Tween 20), 4 °C overnight; anti-MBP-HRP, absorbance at 450 nm
[2] = biological target: Pgm(692–768)* (Paramecium tetraurelia); assay: NMR titration; 100 μM 15N-Pgm(692–768)* titrated with 50 to 1000 μM H3(1–19), 1H-15N HSQC at 800 MHz, 5 mM HEPES pH 6.8, 25 mM NaCl, 20 °C; apparent KD from the chemical shift perturbations of E739, assuming 1:1 binding; 1H-1H TOCSY on the final titration point
Pgm(692-768)* CRD = biological target: T1, Pgm(692-768)* CRD (Paramecium tetraurelia, UniProt A0DFJ7 692-768); assay: NMR (1H-1H NOESY); equimolar DNA; 2 Zn2+ in protein; DRaCALA: 25 mM HEPES pH 7.5, 0.1 mg/ml BSA, 0.5 mM DTT, 100 mM NaCl, 25 nM DNA, no competitor, temperature not stated; EMSA: as in earlier paper, 5% acrylamide; conditions: protein: recombinant; tags: GST cleaved by PreScission; seven linker residues left at N-terminus; blunt
T1 sequence: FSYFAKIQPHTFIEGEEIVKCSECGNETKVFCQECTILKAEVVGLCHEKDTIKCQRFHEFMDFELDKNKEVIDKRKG

MBP-Pgm = biological target: T2, MBP-Pgm (Paramecium tetraurelia, UniProt A0DFJ7 1-1065); assay: DRaCALA; 400 nM protein; DRaCALA: 25 mM HEPES pH 7.5, 0.1 mg/ml BSA, 0.5 mM DTT, 100 mM NaCl, 25 nM DNA, no competitor, temperature not stated; EMSA: as in earlier paper, 5% acrylamide; conditions: protein: recombinant; tags: N-terminal MBP; label: 32P at 5' end of top strand
T2 sequence: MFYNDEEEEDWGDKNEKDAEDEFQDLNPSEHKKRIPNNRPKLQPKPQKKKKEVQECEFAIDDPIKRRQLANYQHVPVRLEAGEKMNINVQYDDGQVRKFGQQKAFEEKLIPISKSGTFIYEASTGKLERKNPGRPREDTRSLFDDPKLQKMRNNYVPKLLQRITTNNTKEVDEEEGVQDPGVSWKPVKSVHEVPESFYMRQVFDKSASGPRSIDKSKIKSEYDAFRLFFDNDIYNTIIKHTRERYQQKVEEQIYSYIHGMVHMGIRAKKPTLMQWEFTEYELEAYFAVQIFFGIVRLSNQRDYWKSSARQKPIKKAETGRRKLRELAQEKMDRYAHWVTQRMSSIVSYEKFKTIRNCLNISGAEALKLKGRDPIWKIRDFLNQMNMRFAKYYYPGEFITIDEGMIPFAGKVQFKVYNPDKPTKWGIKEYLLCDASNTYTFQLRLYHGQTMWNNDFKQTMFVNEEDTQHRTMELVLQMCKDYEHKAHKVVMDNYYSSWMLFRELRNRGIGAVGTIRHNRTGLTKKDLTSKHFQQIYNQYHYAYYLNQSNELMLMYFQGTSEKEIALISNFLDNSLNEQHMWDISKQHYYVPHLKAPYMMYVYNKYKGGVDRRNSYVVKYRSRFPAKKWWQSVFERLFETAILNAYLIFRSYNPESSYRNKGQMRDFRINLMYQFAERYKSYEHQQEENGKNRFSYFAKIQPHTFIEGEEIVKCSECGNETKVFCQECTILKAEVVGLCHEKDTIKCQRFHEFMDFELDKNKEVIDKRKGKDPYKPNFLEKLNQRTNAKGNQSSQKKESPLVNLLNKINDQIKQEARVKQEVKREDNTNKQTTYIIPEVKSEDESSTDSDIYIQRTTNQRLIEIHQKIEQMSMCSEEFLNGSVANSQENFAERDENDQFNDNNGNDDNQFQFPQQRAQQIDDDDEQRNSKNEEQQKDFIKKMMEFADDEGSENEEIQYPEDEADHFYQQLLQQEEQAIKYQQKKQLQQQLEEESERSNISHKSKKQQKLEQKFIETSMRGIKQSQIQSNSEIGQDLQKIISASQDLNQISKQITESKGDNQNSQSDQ

GST-Pgm(692-768) CRD [3] = biological target: T3, GST-Pgm(692-768) CRD (Paramecium tetraurelia, UniProt A0DFJ7 692-768); assay: DRaCALA; no competitor DNA; DRaCALA: 25 mM HEPES pH 7.5, 0.1 mg/ml BSA, 0.5 mM DTT, 100 mM NaCl, 25 nM DNA, no competitor, temperature not stated; EMSA: as in earlier paper, 5% acrylamide; conditions: protein: recombinant; tags: N-terminal GST; label: 32P at 5' end of top strand
T3 sequence: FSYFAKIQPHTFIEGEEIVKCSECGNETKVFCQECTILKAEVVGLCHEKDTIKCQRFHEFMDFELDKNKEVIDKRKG

GST-Pgm(692-768) CRD [4] = biological target: T3, GST-Pgm(692-768) CRD; assay: EMSA; DRaCALA: 25 mM HEPES pH 7.5, 0.1 mg/ml BSA, 0.5 mM DTT, 100 mM NaCl, 25 nM DNA, no competitor, temperature not stated; EMSA: as in earlier paper, 5% acrylamide; conditions: protein: recombinant; tags: N-terminal GST; label: 32P

MBP-Pgm(692–768) (domain or fragment) gave a reduction of the ELISA interaction signal relative to unmodified H3(1–19) [1] of 30%.

H3(1–19) (peptide) was tested, and the Kd [2] was 289 µM.

B1: i4404 (NMR) (dsDNA)
DNA 1: GCTTGCACATCTCTAGTTGATGG
DNA 2: CCATCAACTAGAGATGTGCAAGC
B1: no binding (Pgm(692-768)* CRD).

B2: i1835 (NMR) (dsDNA)
DNA 1: CTACTACATAATGCTAAACTCATTTATAGATGGATTGTTTTCCAAGTATCTATATC
DNA 2: GATATAGATACTTGGAAAACAATCCATCTATAAATGAGTTTAGCATTATGTAGTAG
B2: no binding (Pgm(692-768)* CRD).

B3: IES 51A1835 80-bp substrate (dsDNA)
DNA 1: ACTACTACATAATGCTAAACTCATTTATAGATGGATTGTTTTCCAAGTATCTATATCATCATGTGTTGCTAATAACCCTG
DNA 2: ATCGCAGGGTTATTAGCAACACATGATGATATAGATACTTGGAAAACAATCCATCTATAAATGAGTTTAGCATTATGTAGT
B3: binds (MBP-Pgm); no binding (GST-Pgm(692-768) CRD [3]).

B4: IES 51A4404 left end 70-bp substrate (dsDNA)
DNA 1: CTAGCTTACAACGCAGCTTGCACATCTCTAGTTGATGGTATTGTGGTGTTATTTTAAAAAGTAATATATT
DNA 2: CGATAATATATTACTTTTTAAAATAACACCACAATACCATCAACTAGAGATGTGCAAGCTGCGTTGTAAG
B4: no binding (GST-Pgm(692-768) CRD [4]).
